Assay results as given in patent publication US20190307868A1.

Experiments:
Settings in all cases: remark: other sources report otherwise
HLA-B08:01 (human) [1] = test: peptide-MHC-I complex dissociation half-life, 125I-b2m, 37 C
HLA-A02:01 (human) [2] = test: pMHC-I dissociation half-life, 125I-b2m
HLA-A02:01 (human) [3] = test: competition with 125I-labelled probe peptide, purified HLA
HLA-B08:01 (human) [4] = test: competitive inhibition of 125I-labeled probe peptide binding to purified HLA class I

Binder	Stability (T1/2 (h)) (HLA-B08:01 (human) [1]) [h]	Stability (T1/2 (h)) (HLA-A02:01 (human) [2]) [h]	IC50 (HLA-A02:01 (human) [3]) [µM]	IC50 (HLA-B08:01 (human) [4]) [µM]
SLPRFILMEL [… (ALK, L1196M)]	0			
SVCFFFFSV [… (CNOT1(+1))]	0			
LVVVGAVGV		0.6		
LVVVGACGV		0.6	1.21	
QLIMQLMPF [… (EGFR, T790M)]	0			
FLPSTLKSL [… (ESR1, S463P)]	0			1.97
WLHKRGKYI [… (AKT1, E17K)]	1.3			0.417
LVVVGADGV		0	1.19	
